Results reported in patent US20190292266A1.

How the values were obtained:
CD3 (Example 7) = assay: SPR, biotinylated CD3 on SA chip, Langmuir 1:1
[1] = target: PD1 (immobilized target, Example 7); assay: SPR, PD1 immobilized on CM5 chip, Langmuir 1:1

Chain of CD3 (Example 7) (P22646 22-108): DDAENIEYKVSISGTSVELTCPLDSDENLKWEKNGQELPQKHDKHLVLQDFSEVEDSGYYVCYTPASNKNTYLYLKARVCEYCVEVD

B1: 145-2C11 Fab NH 128187 (bispecific antibody)
heavy: not shown
light: DIQMTQSPSSLPASLGDRVTINCQASQDISNYLNWYQQKPGKAPKLLIYYTNKLADGVPSRFSGSGSGRDSSFTISSLESEDIGSYYCQQYYNYPWTFGPGTKLEIKRADAKPTVSIFPPSSEQLGTGSATLVCFVNNFYPKDINVKWKVDGSEKRDGVLQSVTDQDSKDSTYSLSSTLSLTKADYERHNLYTCEVTHKTSTAAIVKTLNRNEC
modifications: not checked
In the case of B1, the Kd (CD3 (Example 7)) is reported as 10.8 nM, the koff (CD3 (Example 7)) is reported as 0.00306 s⁻¹ and the kon (CD3 (Example 7)) is reported as 284000 M⁻¹ s⁻¹. It also gave a Kd [1] of 4.61 nM, a koff [1] of 0.000229 s⁻¹ and a kon [1] of 49600 M⁻¹ s⁻¹.

B2: 145-2C11 Fab CH 128187 (bispecific antibody)
heavy: not shown
light: DIQMTQSPSSLPASLGDRVTINCQASQDISNYLNWYQQKPGKAPKLLIYYTNKLADGVPSRFSGSGSGRDSSFTISSLESEDIGSYYCQQYYNYPWTFGPGTKLEIKRADAKPTVSIFPPSSEQLGTGSATLVCFVNNFYPKDINVKWKVDGSEKRDGVLQSVTDQDSKDSTYSLSSTLSLTKADYERHNLYTCEVTHKTSTAAIVKTLNRNEC
modifications: not checked
B2 gave a Kd (CD3 (Example 7)) of 2.14 nM, a koff (CD3 (Example 7)) of 0.00126 s⁻¹ and a kon (CD3 (Example 7)) of 587000 M⁻¹ s⁻¹. It also gave a Kd [1] of 686 nM, a koff [1] of 9.45e-05 s⁻¹ and a kon [1] of 138 M⁻¹ s⁻¹.

B3: 145-2C11 Fab CL 128187 (bispecific antibody)
heavy: EVQLVESGGGLVQPGKSLKLSCEASGFTFSGYGMHWVRQAPGRGLESVAYITSSSINIKYADAVKGRFTVSRDNAKNLLFLQMNILKSEDTAMYYCARFDWDKNYWGQGTMVTVSSAKTTAPSVYPLAPACDSTTSTTNTVTLGCLVKGYFPEPVTVIWNSGALTSGVHTFPSVLHSGLYSLSSSVTVPSSTWPSQTVTCNVAHPASSTTVDLKIE
light: not shown
modifications: not checked
Work on B3 yielded a Kd (CD3 (Example 7)) of 3.92 nM, a koff (CD3 (Example 7)) of 0.0015 s⁻¹ and a kon (CD3 (Example 7)) of 381000 M⁻¹ s⁻¹. For the same binder, the Kd [1] was 36.2 nM, the koff [1] was 0.000282 s⁻¹ and the kon [1] was 7780 M⁻¹ s⁻¹.
